Experimental findings from PMC5708649 (PLoS ONE, 2017) are described below.

The target of this assay is inactive E433A variant of full-length PgDPP III (Porphyromonas gingivalis W83, UniProt Q7MX92 1-886, E433A). As to the kind of experiment: ITC. As to conditions: both partners purified.

B1: tynorphin (peptide)
peptide: VVYPW
notes: also called VVYPW; pentapeptide tynorphin
For the molecule B1, the binding result is “binds”.

B2: IVYPW (peptide)
peptide: IVYPW
For B2, the binding result is listed as “binds”.
